Measurements as given in the supplement of paper PMC9112550, “Optimization of the antimicrobial peptide Bac7 by deep mutational scanning” (BMC Biology, 2022).

Tested on: Escherichia coli TOP10
Assay: shrunken log2 fold change of peptide-encoding DNA abundance (4.5 h post-induction vs induction); higher = less antimicrobial activity (less host growth inhibition)
Conditions: time post-induction: 4.5 h; library: site-saturation at positions 5, 18, 19, 20
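Note: peptides expressed intracellularly from a pBAD plasmid library in pooled LB shake-flask culture, induced with 0.3% L-arabinose, DNA abundance read by NGS, three biological replicates, DESeq2 with apeglm shrinkage.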

| Sequence | shrunken log2 fold change |
| --- | --- |
| RRIRPRPPRLPRPRPRPEHKPRP | -0.00916 |
| RRIRFRPPRLPRPRPRPVSNPRP | -0.0552 |
| RRIRKRPPRLPRPRPRPVCYPRP | 0.242 |
| RRIRFRPPRLPRPRPRPVIEPRP | -0.161 |
| RRIRMRPPRLPRPRPRPTYLPRP | -0.497 |
| RRIRMRPPRLPRPRPRPHHAPRP | 0.0324 |
| RRIRPRPPRLPRPRPRPYMGPRP | -0.659 |
| RRIRQRPPRLPRPRPRPQPSPRP | 0.44 |
| RRIRDRPPRLPRPRPRPVTWPRP | 0.0882 |
| RRIRVRPPRLPRPRPRPFCQPRP | -0.203 |
| RRIRTRPPRLPRPRPRPSSGPRP | 0.11 |
| RRIRDRPPRLPRPRPRPVRMPRP | 0.059 |
| RRIRSRPPRLPRPRPRPYIYPRP | -0.778 |
| RRIRMRPPRLPRPRPRPWFVPRP | -0.283 |
| RRIRLRPPRLPRPRPRPIGIPRP | -0.179 |
| RRIRVRPPRLPRPRPRPEQCPRP | 0.171 |
| RRIRTRPPRLPRPRPRPLHYPRP | -0.592 |
| RRIRHRPPRLPRPRPRPTRTPRP | 0.365 |
| RRIRIRPPRLPRPRPRPFMSPRP | -0.308 |
| RRIRDRPPRLPRPRPRPTDRPRP | 0.694 |
| RRIRDRPPRLPRPRPRPKWTPRP | 0.0796 |
| RRIRHRPPRLPRPRPRPIKQPRP | -0.0565 |
| RRIRSRPPRLPRPRPRPGLGPRP | 0.485 |
| RRIRKRPPRLPRPRPRPTDDPRP | 1.01 |
| RRIRGRPPRLPRPRPRPFWCPRP | -0.0505 |

| Sequence | shrunken log2 fold change |
| --- | --- |
| RRIRKRPPRLPRPRPRPLPVPRP | 0.431 |
| RRIRFRPPRLPRPRPRPVHCPRP | -0.0193 |
| RRIRIRPPRLPRPRPRPSSIPRP | -0.169 |
| RRIRHRPPRLPRPRPRPDSNPRP | -0.0814 |
| RRIRMRPPRLPRPRPRPALTPRP | 0.433 |
| RRIRERPPRLPRPRPRPPIEPRP | -0.227 |
| RRIRYRPPRLPRPRPRPQSIPRP | -0.0346 |
| RRIRRRPPRLPRPRPRPRQTPRP | 0.0881 |
| RRIRVRPPRLPRPRPRPDGKPRP | -0.0236 |
| RRIRRRPPRLPRPRPRPDFPPRP | 0.897 |
| RRIRFRPPRLPRPRPRPFKMPRP | 1.77 |
| RRIRYRPPRLPRPRPRPKVMPRP | -0.296 |
| RRIRIRPPRLPRPRPRPWRPPRP | 0.145 |
| RRIRPRPPRLPRPRPRPHVNPRP | -0.38 |
| RRIRQRPPRLPRPRPRPNYVPRP | -0.426 |
| RRIRYRPPRLPRPRPRPKEYPRP | 0.171 |
| RRIRGRPPRLPRPRPRPGDDPRP | 0.911 |
| RRIRCRPPRLPRPRPRPKDLPRP | -0.46 |
| RRIRLRPPRLPRPRPRPHAIPRP | -0.346 |
| RRIRVRPPRLPRPRPRPNKKPRP | -0.0801 |
| RRIRHRPPRLPRPRPRPGAWPRP | 0.265 |
| RRIRARPPRLPRPRPRPGFPPRP | 0.213 |
| RRIRKRPPRLPRPRPRPYCIPRP | -0.0175 |
| RRIRLRPPRLPRPRPRPMYPPRP | -0.0826 |
| RRIRLRPPRLPRPRPRPHGLPRP | 0.123 |
